Experimental data published in paper PMC9482650, “Quantitative fragmentomics allow affinity mapping of interactomes” (Nature Communications, 2022).

Legend:
Assay in all cases: holdup assay
Design in all cases: key: below the threshold = too weak to quantify, mostly under pKd 3.1 to 4
ARHGAP21, Q5T5U3 = molecular target: T1, ARHGAP21, Q5T5U3
T1 sequence (Q5T5U3 45-169, limits assumed, looked up): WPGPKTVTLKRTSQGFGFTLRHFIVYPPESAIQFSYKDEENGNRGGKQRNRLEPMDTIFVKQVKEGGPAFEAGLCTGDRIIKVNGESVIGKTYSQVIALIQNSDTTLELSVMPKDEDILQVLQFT

ARHGEF11, O15085 = molecular target: T2, ARHGEF11, O15085
T2 sequence (O15085 42-136, limits assumed, looked up): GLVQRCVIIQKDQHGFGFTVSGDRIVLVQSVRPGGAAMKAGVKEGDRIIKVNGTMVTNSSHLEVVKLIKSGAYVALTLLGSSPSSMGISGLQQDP

DLG3_2, Q92796 = molecular target: T3, DLG3_2, Q92796
T3 sequence (Q92796 221-321, limits assumed, looked up): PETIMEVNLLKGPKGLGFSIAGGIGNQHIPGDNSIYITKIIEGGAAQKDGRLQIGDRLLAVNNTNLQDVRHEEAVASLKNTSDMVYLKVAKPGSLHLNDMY

DLG5_1, Q8TDM6 = molecular target: DLG5_1, Q8TDM6
DLG5_1, Q8TDM6, sequence (Q8TDM6 617-713): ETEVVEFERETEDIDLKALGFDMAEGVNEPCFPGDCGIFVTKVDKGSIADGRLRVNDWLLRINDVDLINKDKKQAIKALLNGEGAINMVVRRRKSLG

GORASP1, Q9BQQ3 = molecular target: GORASP1, Q9BQQ3
GORASP1, Q9BQQ3, sequence (Q9BQQ3 1-208): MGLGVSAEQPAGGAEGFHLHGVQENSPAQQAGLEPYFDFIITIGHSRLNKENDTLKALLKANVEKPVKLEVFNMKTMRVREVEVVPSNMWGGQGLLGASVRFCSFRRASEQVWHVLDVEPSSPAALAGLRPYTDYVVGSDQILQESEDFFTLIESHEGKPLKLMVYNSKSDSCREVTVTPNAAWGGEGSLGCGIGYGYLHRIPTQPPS

GRIP2_5, Q9C0E4 = molecular target: GRIP2_5, Q9C0E4
GRIP2_5, Q9C0E4, sequence (Q9C0E4 544-642): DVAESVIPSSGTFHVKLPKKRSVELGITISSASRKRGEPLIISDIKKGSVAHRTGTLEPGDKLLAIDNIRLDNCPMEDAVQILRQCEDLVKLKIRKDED

IL16_1, Q14005 = molecular target: IL16_1, Q14005
IL16_1, Q14005, sequence (Q14005 210-306): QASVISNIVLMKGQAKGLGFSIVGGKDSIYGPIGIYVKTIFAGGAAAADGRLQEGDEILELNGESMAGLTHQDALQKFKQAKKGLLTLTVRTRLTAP

IL16_4, Q14005 = molecular target: IL16_4, Q14005
IL16_4, Q14005, sequence (Q14005 1229-1329): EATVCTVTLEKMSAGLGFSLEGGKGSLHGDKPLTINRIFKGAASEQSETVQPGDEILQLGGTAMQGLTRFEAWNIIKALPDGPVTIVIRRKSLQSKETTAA

Inadl_2, Q8NI35 = molecular target: Inadl_2, Q8NI35
Inadl_2, Q8NI35, sequence (Q8NI35 238-335): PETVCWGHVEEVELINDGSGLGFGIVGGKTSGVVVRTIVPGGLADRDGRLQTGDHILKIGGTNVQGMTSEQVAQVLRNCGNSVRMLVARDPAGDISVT

Inadl_8, Q8NI35 = molecular target: Inadl_8, Q8NI35
Inadl_8, Q8NI35, sequence (Q8NI35 1425-1530): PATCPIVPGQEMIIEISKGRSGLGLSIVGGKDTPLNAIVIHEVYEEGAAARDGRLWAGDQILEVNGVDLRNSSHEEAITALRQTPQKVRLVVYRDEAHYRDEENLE

LDB3, O75112 = molecular target: LDB3, O75112
LDB3, O75112, sequence (O75112 1-94): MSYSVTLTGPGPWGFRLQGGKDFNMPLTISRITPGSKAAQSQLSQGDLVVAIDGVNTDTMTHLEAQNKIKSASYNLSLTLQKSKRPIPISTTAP

LNX2_2, Q8N448 = molecular target: T4, LNX2_2, Q8N448
T4 sequence (Q8N448 334-432, limits assumed, looked up): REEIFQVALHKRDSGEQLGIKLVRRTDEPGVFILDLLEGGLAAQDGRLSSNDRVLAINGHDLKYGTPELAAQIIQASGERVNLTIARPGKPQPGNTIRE

MAST1, Q9Y2H9 = molecular target: MAST1, Q9Y2H9
MAST1, Q9Y2H9, sequence (Q9Y2H9 962-1065): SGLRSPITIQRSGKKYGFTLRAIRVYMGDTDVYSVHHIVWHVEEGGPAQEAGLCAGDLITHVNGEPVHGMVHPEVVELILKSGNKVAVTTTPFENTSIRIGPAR

MAST2, Q6P0Q8 = molecular target: MAST2, Q6P0Q8
MAST2, Q6P0Q8, sequence (Q6P0Q8 1099-1202): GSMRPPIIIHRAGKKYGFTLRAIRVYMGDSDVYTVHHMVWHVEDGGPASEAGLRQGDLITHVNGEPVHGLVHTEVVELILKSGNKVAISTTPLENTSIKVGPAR

MPP6, Q9NZW5 = molecular target: T5, MPP6, Q9NZW5
T5 sequence (Q9NZW5 125-219, limits assumed, looked up): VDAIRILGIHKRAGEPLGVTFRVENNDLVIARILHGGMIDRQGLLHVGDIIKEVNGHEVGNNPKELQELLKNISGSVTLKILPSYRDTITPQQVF

NHERF2_2, Q15599 = molecular target: NHERF2_2, Q15599
NHERF2_2, Q15599, sequence (Q15599 142-238): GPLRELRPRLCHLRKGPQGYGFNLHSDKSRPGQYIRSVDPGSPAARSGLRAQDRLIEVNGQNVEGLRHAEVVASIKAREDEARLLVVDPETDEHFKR

NHERF3_3, Q5T2W1 = molecular target: T6, NHERF3_3, Q5T2W1
T6 sequence (Q5T2W1 238-333, limits assumed, looked up): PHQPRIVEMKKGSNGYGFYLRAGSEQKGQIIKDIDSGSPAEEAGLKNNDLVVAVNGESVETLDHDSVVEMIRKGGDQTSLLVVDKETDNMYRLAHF

NHERF4_4, Q86UT5 = molecular target: NHERF4_4, Q86UT5
NHERF4_4, Q86UT5, sequence (Q86UT5 464-550): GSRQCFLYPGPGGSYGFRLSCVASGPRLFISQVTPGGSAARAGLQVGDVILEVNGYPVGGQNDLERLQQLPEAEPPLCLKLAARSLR

PCLO, Q9Y6V0 = molecular target: T7, PCLO, Q9Y6V0
T7 sequence (Q9Y6V0 4491-4600, limits assumed, looked up): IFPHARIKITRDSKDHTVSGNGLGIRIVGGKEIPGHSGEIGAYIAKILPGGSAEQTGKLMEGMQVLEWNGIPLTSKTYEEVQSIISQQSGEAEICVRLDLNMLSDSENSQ

PDZRN3_1, Q9UPQ7 = molecular target: T8, PDZRN3_1, Q9UPQ7
T8 sequence (Q9UPQ7 244-349, limits assumed, looked up): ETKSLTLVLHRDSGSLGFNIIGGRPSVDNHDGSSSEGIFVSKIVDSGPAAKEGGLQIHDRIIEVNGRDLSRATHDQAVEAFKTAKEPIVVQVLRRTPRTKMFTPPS

PICK1, Q9NRD5 = molecular target: PICK1, Q9NRD5
PICK1, Q9NRD5, sequence (Q9NRD5 17-115): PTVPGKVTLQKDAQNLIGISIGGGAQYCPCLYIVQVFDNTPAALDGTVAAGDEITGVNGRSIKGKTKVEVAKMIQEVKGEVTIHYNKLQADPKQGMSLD

PTPN3, P26045 = molecular target: PTPN3, P26045
PTPN3, P26045, sequence (P26045 505-587): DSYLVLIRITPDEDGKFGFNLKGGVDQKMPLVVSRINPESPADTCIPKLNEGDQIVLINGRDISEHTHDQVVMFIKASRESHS

RHPN1, Q8TCX5 = molecular target: T9, RHPN1, Q8TCX5
T9 sequence (Q8TCX5 508-602, limits assumed, looked up): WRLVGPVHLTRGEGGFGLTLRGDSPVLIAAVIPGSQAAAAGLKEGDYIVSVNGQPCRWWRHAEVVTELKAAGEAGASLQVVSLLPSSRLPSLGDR

SHANK1, Q9Y566 = molecular target: T10, SHANK1, Q9Y566
T10 sequence (Q9Y566 658-767, limits assumed, looked up): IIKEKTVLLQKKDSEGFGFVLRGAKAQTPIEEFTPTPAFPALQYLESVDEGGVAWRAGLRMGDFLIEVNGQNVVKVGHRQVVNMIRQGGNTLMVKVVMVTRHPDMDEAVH

SIPA1L2, Q9P2F8 = molecular target: T11, SIPA1L2, Q9P2F8
T11 sequence (Q9P2F8 945-1036, limits assumed, looked up): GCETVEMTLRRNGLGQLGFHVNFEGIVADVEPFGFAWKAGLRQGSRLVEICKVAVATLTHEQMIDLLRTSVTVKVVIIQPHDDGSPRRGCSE

SNX27, Q96L92 = molecular target: SNX27, Q96L92
TJP1_2, Q07157 = molecular target: TJP1_2, Q07157
TJP1_2, Q07157, sequence (Q07157 181-274): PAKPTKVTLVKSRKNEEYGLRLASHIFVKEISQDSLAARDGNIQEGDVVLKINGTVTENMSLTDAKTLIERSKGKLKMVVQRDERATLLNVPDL

[1] = plain residues with an end cap or a label only (N-terminal biotin on a linker: ttds)
[2] = plain residues with an end cap or a label only (N-terminal biotin on a linker: ahx)

QPGTPTRTAV [MAP2K2, P36507]
pKd (ARHGAP21, Q5T5U3; [1]): below the threshold
pKd (ARHGEF11, O15085; [1]): below the threshold
pKd (DLG3_2, Q92796; [1]): 3.93
pKd (DLG5_1, Q8TDM6; [1]): below the threshold
pKd (GORASP1, Q9BQQ3; [1]): below the threshold
pKd (GRIP2_5, Q9C0E4; [1]): below the threshold
pKd (IL16_1, Q14005; [1]): below the threshold
pKd (IL16_4, Q14005; [1]): below the threshold
pKd (Inadl_2, Q8NI35; [1]): below the threshold
pKd (Inadl_8, Q8NI35; [1]): 3.78
pKd (LDB3, O75112; [1]): below the threshold
pKd (LNX2_2, Q8N448; [1]): below the threshold
pKd (MAST1, Q9Y2H9; [1]): below the threshold
pKd (MAST2, Q6P0Q8; [1]): 4.34
pKd (MPP6, Q9NZW5; [1]): 3.52
pKd (NHERF2_2, Q15599; [1]): below the threshold
pKd (NHERF3_3, Q5T2W1; [1]): below the threshold
pKd (NHERF4_4, Q86UT5; [1]): below the threshold
pKd (PCLO, Q9Y6V0; [1]): below the threshold
pKd (PDZRN3_1, Q9UPQ7; [1]): below the threshold
pKd (PICK1, Q9NRD5; [1]): below the threshold
pKd (PTPN3, P26045; [1]): below the threshold
pKd (RHPN1, Q8TCX5; [1]): below the threshold
pKd (SHANK1, Q9Y566; [1]): 4.17
pKd (SIPA1L2, Q9P2F8; [1]): below the threshold
pKd (SNX27, Q96L92; [1]): below the threshold
pKd (TJP1_2, Q07157; [1]): below the threshold

EDEDEQVSAV [RAPGEF2, Q9Y4G8]
pKd (ARHGAP21, Q5T5U3; [2]): below the threshold
pKd (ARHGEF11, O15085; [2]): 4.1
pKd (DLG3_2, Q92796; [2]): 3.87
pKd (DLG5_1, Q8TDM6; [2]): below the threshold
pKd (GORASP1, Q9BQQ3; [2]): below the threshold
pKd (GRIP2_5, Q9C0E4; [2]): below the threshold
pKd (IL16_1, Q14005; [2]): 4.17
pKd (IL16_4, Q14005; [2]): below the threshold
pKd (Inadl_2, Q8NI35; [2]): below the threshold
pKd (Inadl_8, Q8NI35; [2]): 3.86
pKd (LDB3, O75112; [2]): below the threshold
pKd (LNX2_2, Q8N448; [2]): below the threshold
pKd (MAST1, Q9Y2H9; [2]): 4.22
pKd (MAST2, Q6P0Q8; [2]): 4.92
pKd (MPP6, Q9NZW5; [2]): below the threshold
pKd (NHERF2_2, Q15599; [2]): 3.68
pKd (NHERF3_3, Q5T2W1; [2]): below the threshold
pKd (NHERF4_4, Q86UT5; [2]): below the threshold
pKd (PCLO, Q9Y6V0; [2]): below the threshold
pKd (PDZRN3_1, Q9UPQ7; [2]): below the threshold
pKd (PICK1, Q9NRD5; [2]): below the threshold
pKd (PTPN3, P26045; [2]): 4.39
pKd (RHPN1, Q8TCX5; [2]): 4.23
pKd (SHANK1, Q9Y566; [2]): 4.28
pKd (SIPA1L2, Q9P2F8; [2]): below the threshold
pKd (SNX27, Q96L92; [2]): 5.32
pKd (TJP1_2, Q07157; [2]): below the threshold

CLDTSRETDL [KCNA5, P22460]
pKd (ARHGAP21, Q5T5U3; [1]): 3.78
pKd (ARHGEF11, O15085; [1]): 4
pKd (DLG3_2, Q92796; [1]): 4.35
pKd (DLG5_1, Q8TDM6; [1]): below the threshold
pKd (GORASP1, Q9BQQ3; [1]): below the threshold
pKd (GRIP2_5, Q9C0E4; [1]): below the threshold
pKd (IL16_1, Q14005; [1]): 3.5
pKd (IL16_4, Q14005; [1]): below the threshold
pKd (Inadl_2, Q8NI35; [1]): below the threshold
pKd (Inadl_8, Q8NI35; [1]): below the threshold
pKd (LDB3, O75112; [1]): below the threshold
pKd (LNX2_2, Q8N448; [1]): below the threshold
pKd (MAST1, Q9Y2H9; [1]): 4.91
pKd (MAST2, Q6P0Q8; [1]): 5.52
pKd (MPP6, Q9NZW5; [1]): below the threshold
pKd (NHERF2_2, Q15599; [1]): 4.49
pKd (NHERF3_3, Q5T2W1; [1]): below the threshold
pKd (NHERF4_4, Q86UT5; [1]): below the threshold
pKd (PCLO, Q9Y6V0; [1]): below the threshold
pKd (PDZRN3_1, Q9UPQ7; [1]): 4.38
pKd (PICK1, Q9NRD5; [1]): below the threshold
pKd (PTPN3, P26045; [1]): 4.92
pKd (RHPN1, Q8TCX5; [1]): 4.46
pKd (SHANK1, Q9Y566; [1]): 3.5
pKd (SIPA1L2, Q9P2F8; [1]): below the threshold
pKd (SNX27, Q96L92; [1]): 4.44
pKd (TJP1_2, Q07157; [1]): below the threshold

KKNKDKEYYV [NRXN1, Q9ULB1]
pKd (ARHGAP21, Q5T5U3; [2]): below the threshold
pKd (ARHGEF11, O15085; [2]): below the threshold
pKd (DLG3_2, Q92796; [2]): below the threshold
pKd (DLG5_1, Q8TDM6; [2]): below the threshold
pKd (GORASP1, Q9BQQ3; [2]): 3.8
pKd (GRIP2_5, Q9C0E4; [2]): below the threshold
pKd (IL16_1, Q14005; [2]): below the threshold
pKd (IL16_4, Q14005; [2]): below the threshold
pKd (Inadl_2, Q8NI35; [2]): 4.55
pKd (Inadl_8, Q8NI35; [2]): below the threshold
pKd (LDB3, O75112; [2]): below the threshold
pKd (LNX2_2, Q8N448; [2]): 4.16
pKd (MAST1, Q9Y2H9; [2]): below the threshold
pKd (MAST2, Q6P0Q8; [2]): below the threshold
pKd (MPP6, Q9NZW5; [2]): below the threshold
pKd (NHERF2_2, Q15599; [2]): below the threshold
pKd (NHERF3_3, Q5T2W1; [2]): below the threshold
pKd (NHERF4_4, Q86UT5; [2]): below the threshold
pKd (PCLO, Q9Y6V0; [2]): below the threshold
pKd (PDZRN3_1, Q9UPQ7; [2]): below the threshold
pKd (PICK1, Q9NRD5; [2]): below the threshold
pKd (PTPN3, P26045; [2]): below the threshold
pKd (RHPN1, Q8TCX5; [2]): below the threshold
pKd (SHANK1, Q9Y566; [2]): below the threshold
pKd (SIPA1L2, Q9P2F8; [2]): below the threshold
pKd (SNX27, Q96L92; [2]): below the threshold
pKd (TJP1_2, Q07157; [2]): below the threshold
